{
  "source": "the DeepSol protein solubility set",
  "data": [
    {"assay": "soluble on expression in E. coli; label from the status in PepcDB or PDB records", "values": [
      {"sequence": "MKGNRQRIQPKNIFQAVIDSPLSDQEKEVLTFLYQPIVGANAFSLYWLLLSETTDSEENGSLFHADLISLLDLSCQQLEEACYKLEGIGLLETYKKTDRELGDCYLYYLKAPETAARFFKDEVLALVLFNRVGQRKFDQLVQKFQPHPTKTEGYQNVSASFQEVYAFKEEQIVSEANRLTTIQETFSQKEKSKKISVSTDSFDWHYFVEGLHRLGLQLPEDEASFQEEVYVFHQLYGINELDMVDFASKSFDYYTSRILPKELVRTIHQAFDPDKKPQSTNVVTNKQAQLTVEEQQTYRYNALKMNGFSELDIQMIMDSEKNPPIQYLEALKNSRGGYTTPQERSLVKYLVAKSGLPTSVINILINYVYNIQQQPTLKAEYVNRIANEWGQSGIHSPEKAIEHVRELAKQSQTKQKQRQQNYSGKRQTVRQERLPEWADQPNDETKLSPEEQAELDRQIQEFLNQGGDQ", "soluble on expression in E. coli": "not soluble"},
      {"sequence": "MKGRLLDAVPLSSLTGVGAALSNKLAKINLHTVQDLLLHLPLRYEDRTHLYPIGELLPGVYATVEGEVLNCNISFGGRRMMTCQISDGSGILTMRFFNFSAAMKNSLAAGRRVLAYGEAKRGKYGAEMIHPEYRVQGDLSTPELQETLTPVYPTTEGVKQATLRKLTDQALDLLDTCAIEELLPPELSQGMMTLPEALRTLHRPPPTLQLSDLETGQHPAQRRLILEELLAHNLSMLALRAGAQRFHAQPLSANDTLKNKLLAALPFKPTGAQARVVAEIERDMALDVPMMRLVQGDVGSGKTLVAALAALRAIAHGKQVALMAPTELLAEQHANNFRNWFAPLGIEVGWLAGKQKGKARLAQQEAIASGQVQMIVGTHAIFQEQVQFNGLALVIIDEQHRFGVHQRLALWEKGQQQGFHPHQLIMTATPIPRTLAMTAYADLDTSVIDELPPGRTPVTTVAIPDTRRTDIIDRVHHACITEGRQAYWVCTLIEESELLEAQAAEATWEELKLALPELNVGLVHGRMKPAEKQAVMASFKQGELHLLVATTVIEVGVDVPNASLMIIENPERLGLAQLHQLRGRVGRGAVASHCVLLYKTPLSKTAQIRLQVLRDSNDGFVIAQKDLEIRGPGELLGTRQTGNAEFKVADLLRDQAMIPEVQRLARHIHERYPQQAKALIERWMPETERYSNA", "soluble on expression in E. coli": "soluble"},
      {"sequence": "MKGYGEMAKNNPTRITAEPGKQEIIITREFDAPRELVFKAFTDPDLYTQWIGPRGFTTALKIFEPKNGGSWQYIQKDPEGNEYAFHGVNHDVTEPERIISTFEFEGLPEKGHVILDTARFEALPGDRTKLTSHSVFQTIEDRDGMLQSGMEEGINDSYERLDELLEKMKKLEHHHHHH", "soluble on expression in E. coli": "soluble"},
      {"sequence": "MKGYIHVYTGNGKGKTTAALGLATRAACAGLKVFFGQFLKGRETSELKISEFLPNFEIVQYGTPEFIVGNPSEEQIKKAKSGLADAKERLVSEKYDVVVLDELCVAIHLGLFSKEEIEDLLNVKPENVELVITGRYAPEWLIEKADLVTEMKEVKHYYQKGVVARKGIEY", "soluble on expression in E. coli": "soluble"},
      {"sequence": "MKHIHIIGIGGTFMGGLAAIAKEAGFEVSGCDAKMYPPMSTQLEALGIDVYEGFDAAQLDEFKADVYVIGNVAKRGMDVVEAILNLGLPYISGPQWLSENVLHHHWVLGVAGTHGKTTTASMLAWVLEYAGLAPGFLIGGVPENFGVSARLPQTPRQDPNSQSPFFVIEADEYDTAFFDKRSKFVHYRPRTAVLNNLEFDHADIFADLGAIQTQFHYLVRTVPSEGLIVCNGRQQSLQDTLDKGCWTPVEKFGTEHGWQAGEANADGSFDVLLDGKTAGRVKWDLMGRHNRMNALAVIAAARHVGVDIQTACEALGAFKNVKRRMEIKGTANGITVYDDFAHHPTAIETTIQGLRQRVGGARILAVLEPRSNTMKLGTMKSALPVSLKEADQVFCYAGGVDWDVAEALAPLGGRLNVGKDFDAFVAEIVKNAEVGDHILVMSNGGFGGIHGKLLEALR", "soluble on expression in E. coli": "soluble"},
      {"sequence": "MKHQHQHQHQHQHQQPLQEEEQAHATSLPPRASSPPQILPQLSPEQLGMIEKLVAAQQQCNRRSFSDRLRVTPWPMAPDPHSREARQQRFAHFTELAIVSVQEIVDFAKQLPGFLQLSREDQIALLKTSAIEVMLLETSRRYNPGSESITFLKDFSYNREDFAKAGLQVEFINPIFEFSRAMNELQLNDAEFALLIAISIFSADRPNVQDQLQVERLQHTYVEALHAYVSIHHPHDRLMFPRMLMKLVSLRTLSSVHSEQVFALRLQDKKLPPLLSEIWDVHE", "soluble on expression in E. coli": "soluble"},
      {"sequence": "MKHVPPTVLVWFRNDLRLHDHEPLHRALKSGLAITAVYCYDPRQFAQTHQGFAKTGPWRSNFLQQSVQNLAESLQKVGNKLLVTTGLPEQVIPQIAKQINAKTIYYHREVTQEELDVERNLVKQLTILGIEAKGYWGSTLCHPEDLPFSIQDLPDLFTKFRKDIEKKKISIRPCFFAPSQLLPSPNIKLELTAPPPEFFPQINFDHRSVLAFQGGETAGLARLQDYFWHGDRLKDYKETRNGMVGADYSSKFSPWLALGCLSPRFIYQEVKRYEQERVSNDSTHWLIFELLWRDFFRFVAQKYGNKLFNRGGLLNKNFPWQEDQVRFELWRSGQTGYPLVDANMRELNLTGFMSNRGRQNVASFLCKNLGIDWRWGAEWFESCLIDYDVCSNWGNWNYTAGIGNDARDFRYFNIPKQSQQYDPQGTYLRHWLPELKNLPGDKIHQPWLLSATEQKQWGVQLGVDYPRPCVNFHQSVEARRKIEQMGVIA", "soluble on expression in E. coli": "soluble"},
      {"sequence": "MKIAKFTRINAHQVQNCNNEKIAHERKMEKVFEFLAEDKKTFEASNSFERTLIFCKHDKSAMAALLTLYDSKTIFGTFSEYLITNDKTVLERERVQVNNGEKMLAICNMDFMDDFQLGLAKHYIFLDFPLKIIGIKKMLDRLNTMAQQSEQVIDIDFLTTNMDARIYQEALNMEMTMRGSQVPKWLTELVNGSSELPEDPDVIFVRTCKPDLEPLTAKPAKLPSPRQPESKPSNEASSSQLEPTSASQPPSRVDQILKSRSGLPTKDADSSSEVAPRKRKPKSPAFDIYNMKRQPDGTFLIPSHVMGFCNEDLSEDDEEPDPEYDSEEEYNWMYKLDVW", "soluble on expression in E. coli": "not soluble"},
      {"sequence": "MKIAYLGPKGSFSHHVVQTAFPHEELQAFANITDVIKAYEQGLVNYSVVPVENSIEGSVHETLDYLFHQAHIQAVAEIVQPIHQQLMVVPGHTKIEKIFSHPQALAQGKKFIDEQYPEAQIEVTASTAYAARFISEHPDQPFAAVAPRSSAEEYGLELIAEDIQEMEANFTRFWVLGAEKP", "soluble on expression in E. coli": "not soluble"},
      {"sequence": "MKIDLPPLRQFLNRLLALTIRMQNVIFERFELLLSQQIETAIANGIFEAGVETLRAERFTIESCESVYTHPDTGSVTNYLKVEQVQRNNIRTAVEMLEFAAKYQGQLMVNQKSSNAAVSIPTHSIFDCDGGVVPRVLLVRPQKETRVPVEQLESSTWQQVSAEEFVTAWSREVDELPRFTTDYLHLVTGILLPIWKILPQKNSRVFRLQTSDGQKILGRVVHASDIQTVTEQLGLKNKLLSPAELEHHHHHH", "soluble on expression in E. coli": "not soluble"},
      {"sequence": "MKIEELIAIRRDLHRIPELGFQEFKTQQYLLNVLEQYPQDRIEIEKWRTGLFVKVNGTAPEKMLAYRADIDALSIEEQTGLPFASEHHGNMHACGHDLHMTIALGIIDHFVHHPVKHDLLFLFQPAEEGPGGAEPMLESDVLKKWQPDFITALHIAPELPVGTIATKSGLLFANTSELVIDLEGKGGHAAYPHLAEDMVVAASTLVTQLQTIISRNTDPLDSAVITVGTITGGSAQNIIAETAHLEGTIRTLSEESMKQVKERIEDVVKGIEIGFRCKGKVTYPSVYHQVYNTSGLTEEFMSFVAEHQLATVIEAKEAMTGEDFGYMLKKYPGFMFWLGADSEHGLHHAKLNPDENAIETAVHVMTGYFSVYAN", "soluble on expression in E. coli": "not soluble"},
      {"sequence": "MKIESAVEISKTATDFHTALDASSVIGSDRVDQLKSILNLTKSDTALLESNITQAKQLKITLDAQLQQRKALVDEYKSKLTVLEGSYMRKSAEVQRLQNELQNAQKAHAMKATTAPNEKNQANCSIS", "soluble on expression in E. coli": "not soluble"},
      {"sequence": "MKIMIFICGEGLGHTSRCLALGKELLNAGHEIKFGAYGYSKELVEKTGYTAQEIPSEIKLVGKAGSLDLTGSIEATLKSAQLLGGPKLLKLLREFKPDVVVSDSYYLGTLAAMVLKLPVYLIINQSNMEEFFKNRGVPVRIIGKLTKKFYKEVFEKTDKILEHHHHHH", "soluble on expression in E. coli": "not soluble"},
      {"sequence": "MKINTALGVAAGKSAHYLLSKMGRGSTYPGSLALKFDKDILDTIAKDYEIVVVTGTNGKTLTTALTVGILKEAFGQVVTNPSGANMITGIVSTFLTAKKSKSGKKIAVLEIDEASLPRITQYIKPSLFVFTNIFRDQMDRYGEIYTTYQMILDGAANAPQATILANGDSPLFNSKSVTNPVQFYGFNTDKHEPRLAHYNTEGILCPKCQAILTYRLNTYANLGDYTCPNCDFERPNLDYALTRLTHLTNTSSGFVIDGQQYNINVGGLYNIYNALAAVSVAEYFGVEPSQIKDGFDKSRAVFGRQETFTIGNKKCTLVLIKNPVGASQALDMIKLAPYPFSLSVLLNANYADGIDTSWIWDANFETILTMNIPEIFAGGVRHSEIARRLRVTGYDEKRIKQADKLQDIMTMIEQQETEHAYILATYTAMLEFREILANHNAIRKEMN", "soluble on expression in E. coli": "not soluble"},
      {"sequence": "MKIRSQVGMVLNLDKCIGCHTCSVTCKNVWTGREGMEYAWFNNVETKPGIGYPKNWEDQQEWQGGWVRDVNGKIRPRLGGKMGVISKIFANPVIPQIDDYYEPFTFDYQHLHNAPESKHQPTARPRSLIDGKRMDKVIWGPNWEELLGGEFEKRARDRNFDNIQKEMYGQFENTFMMYLPRLCEHCLNPSCVATCPSGAIYKREEDGIVLIDQDKCRGWRLCISGCPYKKIYFNWKSGKSEKCIFCYPRIESGQPTVCSETCVGRIRYLGVLLYDADRIEEAASTEHETDLYERQCDVFLNPHDPAVIEEALKQGIPQNVIDAAQRSPVYKMAMDWKLALPLHPEYRTLPMVWYVPPLSPIQSYADAGGLPHNGNILPAVETLRIPVQYLANMLSAGDTGPVIRALKRMMAMRHYMRSQTVEGVTDTRAIEEVGLSIQQVEEMYRYLAIANYEDRFVIPTSHREMARDAFPERNGCGFTFGDGCHGSDTKFNLFNSSRIDAINITEVRDKAEGE", "soluble on expression in E. coli": "not soluble"},
      {"sequence": "MKISIICPLYNAENYIMSLHNKILEQEKPEGTEVEVSYVLTRCKDKTEEMLKNMNLQYTLIEPKDFSHSKTREMMAFKSTGDIIVFISQDVMMKNNFWLKNLVQPIIDGECEASFSRQLCTNNTIEKYIREKNYPEESRVVSKKDINKYGLLTFFYSDASSAVKTSVYKELNGYDNKRLLINEDMYFAEKLIQAGYRIKYCSDSEVYHSHVFTLKSLYERYFDTGVFFRQNSQFLNYKGNKSGKDLAIHVLKRSLEDKNFKVTLNILPNFGARFIGSFLGKKYESLPRSFVMASSMSKKVYSQILEHHHHHH", "soluble on expression in E. coli": "soluble"},
      {"sequence": "MKITAIHLYAIRLPLRNPFVISYGSYSDMPSIIVKMETDEGIIGYGEGVADDHVTGESWESTFHTLKHTLTPALIGQNPMNIEKIHDMMDNTIYGVPTAKAAIDIACFDIMGKKLNQPVYQLIGGRYHEEFPVTHVLSIADPENMAEEAASMIQKGYQSFKMKVGTNVKEDVKRIEAVRERVGNDIAIRVDVNQGWKNSANTLTALRSLGHLNIDWIEQPVIADDIDAMAHIRSKTDLPLMIDEGLKSSREMRQIIKLEAADKVNIKLMKCGGIYPAVKLAHQAEMAGIECQVGSMVESSVASSAGFHVAFSKKIITSVELTGPLKFTKDIGNLHYDVPFIRLNEKPGLGIEINEDTLQELTVFQDIVR", "soluble on expression in E. coli": "soluble"},
      {"sequence": "MKITHCKLKKEVQKEPLRSFVPEVTARSAADILGIHPDSAALFYRKIRTVTNHRLALAADEVFECPAGPGASCFGVRRKGRRGRGAAGKAVVFGIPKRNGRAYTVAEDDAEPETLPPAVKKKIMPDGIVYADSPGSRGKSDAGGFTRCRINRSKEFADRRNHINGIGNFWNQAKRALRKYNGIDRKPFPPLLRECEFRFNFGTPSRQLKILRDRCGILEHHHHHH", "soluble on expression in E. coli": "soluble"},
      {"sequence": "MKIVLIGAGNVATHLGIALQKAGCLILQVYSRTEESASALAARLSVDYTIVPDEIRRDADLYIVALKDAVLRQLAPVLVKGREQALFVHTAGSMSMDLWKGLVKRYGVLYPMQTFSKQREVDFNTVPFFIEASAPAEVELLRMVAVRLSPKVYEVTSGQRRYLHLAAVFACNFANHMYALSSHILEKQGIPFEVMLPLIDETAGKVHELSPTQAQTGPAVRYDENVISKHLEMLADEESLQELYEKISKSIHNLPLSVIQANKEGKNS", "soluble on expression in E. coli": "not soluble"}
    ]}
  ]
}
